Results on five molecules are retold here after patent publication US6017533.

The target of experiment [1] is PACAP receptor in rat brain crude membrane (rat). The experiment in a line: displacement of [^125 I]PACAP 27 from rat brain crude membranes.
For experiment [2] the target is unchanged. The experiment in a line: displacement of [^125 I]MAX from rat brain crude membranes.
The target is the same in experiment [3]. The experiment in a line: displacement of [^125 I]MAX and [^125 I]PACAP 27 from rat brain crude membranes; reference M65.

No end group written: not given here.

As for M65 (SEQ ID NO: 3) (peptide), the concentration for half-maximal inhibition (IC50) in experiment [1] stood at 5.96 nM; in experiment [2], 2.96 nM.
On the same counts, the results for FTDSYSRYRKQMAVKKYLAAVL-NH2 [PACAP 6-27 (SEQ ID NO: 7-NH2)] are 1030 nM and 235 nM.
FTDSYSRYRKQMAVKKYLAAVLGKRYKQRVKNK-NH2 [PACAP 6-38 (SEQ ID NO: 6-NH2)] showed a fold of IC50 against M65 in experiment [3] of 6 to 10 times. Moreover, the IC50 in experiment [1] turned out to be 39.1 nM; in experiment [2] it was 8.35 nM.
For HSDGIFTDSYSRYRKQMAVKKYLAAVL-NH2 (ligand) [PACAP 27 (SEQ ID NO: 5-NH2)], the IC50 was 9.55 nM in experiment [1] and 2.16 nM in experiment [2].
Regarding HSDGIFTDSYSRYRKQMAVKKYLAAVLGKRYKQRVKNK-NH2 (ligand) [PACAP 38 (SEQ ID NO: 4-NH2)], the IC50 stood at 4.45 nM in experiment [1] and 1.91 nM in experiment [2].
